Assay results as given in patent US20260234242A1 (HAINAN SIMCERE ZAIMING PHARMACEUTICAL, published 2026).

T1: monkey CDH6 protein (cynoCDH6 ECD-his) (monkey (cyno), UniProt A0A2K5TW62 19-615)
T1 construct: range 19-615; also called Cyno CDH6-his; not shown: his tag
T1 sequence: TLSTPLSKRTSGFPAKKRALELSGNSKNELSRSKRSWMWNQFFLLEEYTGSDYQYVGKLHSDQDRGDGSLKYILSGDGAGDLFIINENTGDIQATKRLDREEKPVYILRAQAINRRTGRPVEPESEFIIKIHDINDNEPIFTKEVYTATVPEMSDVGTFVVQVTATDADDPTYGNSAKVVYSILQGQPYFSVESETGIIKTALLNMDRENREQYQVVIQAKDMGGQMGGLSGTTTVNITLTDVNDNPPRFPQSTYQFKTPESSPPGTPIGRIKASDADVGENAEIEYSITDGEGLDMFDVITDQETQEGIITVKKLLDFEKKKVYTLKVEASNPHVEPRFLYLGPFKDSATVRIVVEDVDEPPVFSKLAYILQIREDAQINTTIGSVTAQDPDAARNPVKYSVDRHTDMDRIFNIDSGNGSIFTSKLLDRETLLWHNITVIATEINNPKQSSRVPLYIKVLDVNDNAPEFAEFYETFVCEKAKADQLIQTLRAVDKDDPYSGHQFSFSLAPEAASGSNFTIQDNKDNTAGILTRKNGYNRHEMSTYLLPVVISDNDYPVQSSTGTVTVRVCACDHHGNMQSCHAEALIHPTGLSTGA

T2: human CDH6 on tumor cells (OVCAR3 cells, PA-1 cells) (human, UniProt P55285 54-790)
T2 sequence: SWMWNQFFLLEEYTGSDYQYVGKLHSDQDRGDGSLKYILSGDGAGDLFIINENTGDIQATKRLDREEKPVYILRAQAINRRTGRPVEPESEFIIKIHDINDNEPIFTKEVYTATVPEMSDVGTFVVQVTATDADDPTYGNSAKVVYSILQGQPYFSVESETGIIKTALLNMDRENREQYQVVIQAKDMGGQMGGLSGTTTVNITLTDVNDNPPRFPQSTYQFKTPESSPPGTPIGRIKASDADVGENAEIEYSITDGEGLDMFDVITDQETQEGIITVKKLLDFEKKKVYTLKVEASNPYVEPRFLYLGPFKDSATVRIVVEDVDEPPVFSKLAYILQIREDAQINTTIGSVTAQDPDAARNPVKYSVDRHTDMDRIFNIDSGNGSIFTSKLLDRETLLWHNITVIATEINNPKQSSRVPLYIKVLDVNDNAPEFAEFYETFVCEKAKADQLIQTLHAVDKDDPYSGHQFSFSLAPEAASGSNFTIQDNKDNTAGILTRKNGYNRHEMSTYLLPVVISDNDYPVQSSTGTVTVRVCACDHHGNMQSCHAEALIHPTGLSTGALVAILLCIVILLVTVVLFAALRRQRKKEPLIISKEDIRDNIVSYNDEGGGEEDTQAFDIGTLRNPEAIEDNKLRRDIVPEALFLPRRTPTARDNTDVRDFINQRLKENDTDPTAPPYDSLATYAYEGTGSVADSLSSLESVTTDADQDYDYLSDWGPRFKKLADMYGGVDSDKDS

B1: CHI-CDH6-14 (antibody, human IgG1, kappa, V domains shown)
VH: QIQLQQSGPELVKPGTSVKISCKASGYTFTDNYINWVRQRPGQGLEWIGWIYPGTGNSYYNEKFKGKATLTVDTSSSTAYMQFSSLTSEDSAVYLCASSYGDSFDYWGQGTTLTVSS
VL: DIQMTQTTSSLSASLGNRVTISCRASQDIRNYLNWYQQKPDGTFKLLISYTSRLHSGVPSRFSGSGSGTDYSLTVSNLEPEDIATYYCQQYSQLPWTFGGGSRLEIKR
notes: also called CHI-hCDH6-14; CH1-CDH6-14
B2: NOV0712 (antibody, human IgG1, kappa, V domains shown)
VH: QVQLLESGGGLVQPGGSLRLSCAASGFTFSSHGMHWVRQAPGKGLEWVSVISGSGSNTGYADSVKGRFTISRDNSKNTLYLQMNSLRAEDTAVYYCARQWGSYAFDSWGQGTLVTVSS
VL: DIQMTQSPSSLSASVGDRVTITCRASQSISSYLNWYQQKPGKAPKLLIYAVSTLQSGVPSRFSGSGSGTDFTLTISSLQPEDFATYYCQQSGTFPPTTFGQGTKVEIKR
notes: Positive control, variable regions from WO2018212136A1; also called positive control anti-human CDH6 antibody
B3: CHI-CDH6-13 (antibody, human IgG1, kappa, V domains shown)
VH: DVQLQESGPGLVKPSQSLSLTCSVTGYSITKDSYWNWIRQFPGSKLEWMGFISYDGSRHYNPSLKNRISITRDTSKNQFFLQLNSVTTEDTATYYCARRDYADYWGQGTTLTVSS
VL: QIVLTQSPALMSAFPGEKVTMTCSATSSVSYIYWYQQKPRSSPKPWIYLTSNLASGVPARFSGSGSGTSYSLTINSLEAEDAATYYCQQWSSIPYTFGGGTKLEIKR
notes: also called chimeric antibody of murine CDH6-13
B4: CHI-CDH6-12 (antibody, human IgG1, kappa, V domains shown)
VH: EVNLVESGGGLVQPGDSLTLSCSASGFTFTDYYMSWVRQFPGKALEWLALIRNKANSYTTEYSASVKGRFTISRDNSQSILYLQMNALRAEDSATYYCARDSYYSHDGFAYWGQGTLVTVSA
VL: DIVLTQSPASLAVSLGQRATISCRASKSVSTSSYTYMHWYQQKPGQPPKLLIKFASYLESGVPARFSGSGSGTDFTLNIHPVEEEDAATYYCQHSREFPFTFGTGTKLEIKR
notes: also called CH1-CDH6-12; chimeric antibody of murine CDH6-12
B5: DS-H01L02 (antibody, human IgG1, kappa, V domains shown)
VH: EVQLVQSGAEVKKPGASVKVSCKASGYTFTRNFMHWVRQAPGQGLEWMGWIYPGDGETEYAQKFQGRVTITADTSTSTAYMELSSLRSEDTAVYYCARGVYGGFAGGYFDFWGQGTLVTVSS
VL: DIQMTQSPSSLSASVGDRVTITCKASQNIYKNLAWYQQKPGKAPKLLIYDANTLQTGVPSRFSGSGSGSDFTLTISSLQPEDFATYFCQQYYSGWAFGQGTKVEIKR
notes: as for B2

These binders were tested against T1, monkey CDH6 protein (cynoCDH6 ECD-his) (assay: ELISA, coated antigen).
Procedure: Human CDH6 protein (hCDH6 ECD-his, conventionally synthesized), monkey CDH6 protein (cynoCDH6 ECD-his, conventionally synthesized; the cynoCDH6 ECD sequence was derived from Uniprot #A0A2K5TW62 (19-615)), and murine CDH6 protein (mCDH6 ECD-his, conventionally synthesized; the mCDH6 ECD sequence was derived from Uniprot #P97326 (19-615)) were diluted with PBS to a final concentration of 1 μg/mL, and added to a 96-well ELISA plate at 100 μL/well. The plate was incubated at 4° C. overnight. The next day, the plate was washed 3 times with a plate washing solution (PBS+0.01% (v/v) Tween 20), and a blocking buffer (PBS+0.01% (v/v) Tween 20+2% (w/w) BSA) was added for blocking at room temperature for 2 h. The blocking buffer was discarded, and the plate was washed 3 times. The chimeric antibodies were diluted with 1% BSA+PBS (purchased from Cytiva, Cat. No. SH30264.01) and added to the 96-well plate at 50 μL/well. After incubation at 37° C. for 2 h, the plate was washed 3 times with a plate washing solution. […] The plate was incubated at 37° C. for 1 h and then washed 5 times with a plate washing solution. A TMB substrate (purchased from Seracare, Cat. No. 5120-0077) was added at 50 μL/well and incubated at room temperature for 10 min, then a stop solution (1.0 N HCl) was added at 50 μL/well. OD450 nm values were read using a microplate reader (Biotek). Analysis was performed by the GraphPad Prism software, data were fitted, and EC50 values were calculated. The chimeric antibodies tested all had strong binding to the human CDH6 protein, the monkey CDH6 protein, and the murine CDH6 protein.

Binder	EC50	Max OD450
B1	0.039 nM	2.55 OD450
B2	0.039 nM	2.44 OD450
B3	0.017 nM	2.72 OD450
B4	0.044 nM	2.45 OD450
B5	0.103 nM	2.18 OD450

The binders below were run against T2, human CDH6 on tumor cells (OVCAR3 …) (assay: FACS, OVCAR3 cells, 4° C. arm of endocytosis assay, antibody diluted to 10 µg/mL).
Procedure: OVCAR3 cells were cultured until a confluence of 90% was reached, the medium was removed by pipetting, the cells were washed once with PBS, and then treated with an enzyme-free cell dissociation solution (Versene, purchased from Gibco, Cat. No. 15040-066) and the cells were collected. The cells were washed once with PBS, counted, resuspended to 2×10⁶ cells/mL in an FACS buffer (PBS+2% FBS), and then added to two 96-well plates at 50 μL/well. The chimeric antibodies were diluted with FACS buffer (PBS+2% FBS) to 10 μg/mL and separately added to the two 96-well plates at 50 μL/well, and the plates were incubated at 4° C. for 1 h. After the cells were washed 3 times with PBS, the cells were resuspended in an FACS buffer. One 96-well plate was incubated at 4° C. for 1 h, and the other 96-well plate was incubated at 37° C. for 1 h. […] After the plates were centrifuged and washed 2 times with PBS, the cells were resuspended in an FACS buffer. The mean fluorescence intensity (MFI) was measured using FACS Canton II (BD). The chimeric antibodies tested all had good endocytic activity.

Binder	MFI_4° C.
B1	9230 MFI
B2	6520 MFI
B3	5970 MFI
B4	5740 MFI
B5	3830 MFI
